Laboratory results reported in patent US20240175042.

Key:
[1] = molecular target: EIN2-CEND (co-expressed in Arabidopsis mesophyll protoplasts) (UniProt Q9S814)
His6-EBF2 (purified) = His6-EBF2 (purified) (UniProt Q708Y0)
Chain of His6-EBF2 (purified) (Q708Y0 whole entry): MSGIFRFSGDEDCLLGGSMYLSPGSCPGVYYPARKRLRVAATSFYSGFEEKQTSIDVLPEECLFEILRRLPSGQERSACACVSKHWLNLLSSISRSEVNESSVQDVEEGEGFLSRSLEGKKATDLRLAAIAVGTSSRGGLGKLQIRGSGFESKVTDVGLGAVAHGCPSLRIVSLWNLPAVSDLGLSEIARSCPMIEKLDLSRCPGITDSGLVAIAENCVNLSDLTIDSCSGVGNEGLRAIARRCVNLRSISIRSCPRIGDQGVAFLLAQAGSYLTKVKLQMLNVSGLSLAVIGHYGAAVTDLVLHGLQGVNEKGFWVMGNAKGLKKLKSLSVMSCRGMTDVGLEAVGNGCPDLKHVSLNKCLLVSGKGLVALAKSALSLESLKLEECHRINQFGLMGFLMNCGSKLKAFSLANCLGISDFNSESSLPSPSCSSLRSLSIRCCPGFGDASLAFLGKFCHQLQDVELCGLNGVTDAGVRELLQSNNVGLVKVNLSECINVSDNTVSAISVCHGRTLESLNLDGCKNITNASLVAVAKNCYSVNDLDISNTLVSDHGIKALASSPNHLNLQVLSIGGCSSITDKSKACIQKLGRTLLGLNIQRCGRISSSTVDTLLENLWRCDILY

Chain of EIN2-CEND (co-expressed in Arabidopsis mesophyll protoplasts) (Q9S814 462-1294): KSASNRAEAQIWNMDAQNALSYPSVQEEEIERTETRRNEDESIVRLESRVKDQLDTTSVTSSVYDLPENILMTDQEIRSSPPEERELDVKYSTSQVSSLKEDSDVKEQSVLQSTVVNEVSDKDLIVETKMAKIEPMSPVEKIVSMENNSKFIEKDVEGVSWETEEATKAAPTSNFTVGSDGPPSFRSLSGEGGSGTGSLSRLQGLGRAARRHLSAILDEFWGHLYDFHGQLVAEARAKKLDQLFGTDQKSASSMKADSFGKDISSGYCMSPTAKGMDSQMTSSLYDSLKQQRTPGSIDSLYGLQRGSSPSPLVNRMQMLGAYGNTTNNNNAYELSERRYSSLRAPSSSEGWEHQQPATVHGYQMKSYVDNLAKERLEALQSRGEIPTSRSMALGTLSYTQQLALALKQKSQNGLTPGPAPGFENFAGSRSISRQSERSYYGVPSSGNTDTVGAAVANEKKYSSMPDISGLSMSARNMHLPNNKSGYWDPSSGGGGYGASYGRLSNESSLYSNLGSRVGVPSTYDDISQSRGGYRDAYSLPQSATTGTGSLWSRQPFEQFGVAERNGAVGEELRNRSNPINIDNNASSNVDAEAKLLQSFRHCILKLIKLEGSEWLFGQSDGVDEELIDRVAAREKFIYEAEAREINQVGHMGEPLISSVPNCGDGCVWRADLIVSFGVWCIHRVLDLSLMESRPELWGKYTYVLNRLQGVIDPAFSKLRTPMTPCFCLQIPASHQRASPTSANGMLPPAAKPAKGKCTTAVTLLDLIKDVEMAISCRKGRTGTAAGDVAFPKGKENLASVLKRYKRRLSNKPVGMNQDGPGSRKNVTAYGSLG
Chain of CTR1-KD (wild-type CTR1 kinase domain lacking the N-terminal domain, expressed in Arabidopsis mesophyll protoplasts) (chain, as listed by the source): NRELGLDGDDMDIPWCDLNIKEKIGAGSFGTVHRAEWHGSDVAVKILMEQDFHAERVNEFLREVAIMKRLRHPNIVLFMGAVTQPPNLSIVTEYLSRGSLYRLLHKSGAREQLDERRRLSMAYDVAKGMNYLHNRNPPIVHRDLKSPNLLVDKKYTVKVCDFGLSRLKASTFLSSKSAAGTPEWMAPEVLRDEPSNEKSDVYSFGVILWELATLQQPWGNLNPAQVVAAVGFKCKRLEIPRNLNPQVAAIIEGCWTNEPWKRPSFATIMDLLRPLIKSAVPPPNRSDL
Chain of His6-CTR1-KD^WT (purified CTR1 kinase domain, residues 531-821) (chain, as listed by the source): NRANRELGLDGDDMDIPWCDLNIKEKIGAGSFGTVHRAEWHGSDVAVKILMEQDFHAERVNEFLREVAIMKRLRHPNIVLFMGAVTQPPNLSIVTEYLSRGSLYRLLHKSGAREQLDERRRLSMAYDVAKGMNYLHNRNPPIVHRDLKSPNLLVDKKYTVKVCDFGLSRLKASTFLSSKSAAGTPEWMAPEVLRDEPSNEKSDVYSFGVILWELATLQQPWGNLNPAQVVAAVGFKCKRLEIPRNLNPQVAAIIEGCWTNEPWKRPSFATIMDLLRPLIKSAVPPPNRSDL
Chain of CTR1-KD^AAA (CTR1 kinase domain with T704A/S707A/S710A, expressed in Arabidopsis mesophyll protoplasts) (chain, as listed by the source T704A S707A S710A): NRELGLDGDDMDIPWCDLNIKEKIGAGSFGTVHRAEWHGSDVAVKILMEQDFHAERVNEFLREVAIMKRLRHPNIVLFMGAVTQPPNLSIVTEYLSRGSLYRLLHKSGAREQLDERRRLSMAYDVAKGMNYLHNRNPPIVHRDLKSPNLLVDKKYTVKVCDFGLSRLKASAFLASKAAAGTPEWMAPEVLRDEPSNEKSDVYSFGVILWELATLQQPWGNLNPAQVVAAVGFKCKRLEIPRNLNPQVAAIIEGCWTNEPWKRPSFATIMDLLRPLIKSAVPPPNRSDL

| Substance | Phos-tag gel band shift of EIN2-CEND on co-expression in Arabidopsis mesophyll protoplasts [1] | in vitro kinase assay ([γ-32P]ATP incorporation, autoradiography) (His6-EBF2 (purified)) |
| --- | --- | --- |
| CTR1-KD (wild-type CTR1 kinase domain lacking the N-terminal domain, expressed in Arabidopsis mesophyll protoplasts) | Wild-type CTR1-KD, but not CTR1-KD^AAA, phosphorylated EIN2-CEND when co-expressed in Arabidopsis mesophyll protoplasts |  |
| CTR1-KD^AAA (CTR1 kinase domain with T704A/S707A/S710A, expressed in Arabidopsis mesophyll protoplasts) | Wild-type CTR1-KD, but not CTR1-KD^AAA, phosphorylated EIN2-CEND when co-expressed in Arabidopsis mesophyll protoplasts |  |
| His6-CTR1-KD^WT (purified CTR1 kinase domain, residues 531-821) |  | in vitro kinase assay demonstrated that CTR1 does not phosphorylate EBF2 |
